Data on 1 substance can be found in paper PMC10323135.

This assay concerns the target Norovirus-like particle displaying C-terminal SpyTag (norovirus VP1 capsid protein fused with a C-terminal SpyTag) (norovirus strain Hu/GII.4/Sydney/NSW0514/2012/AU). The experiment in a line: SDS-PAGE mobility shift of the covalent SpyTag/SpyCatcher conjugate.

Regarding “SpyCatcher-M2e (SpyCatcher fused with the ectodomain of influenza matrix-2 protein) (designed binder)”, the conjugation efficiency came out at 24%.
